Target: taxol-stabilized microtubules (porcine brain tubulin) (porcine) (UniProt P02550)
Experiment: co-sedimentation

| Kd [µM] | Substance |
| --- | --- |
| 1.6 | chick Fmn2 FH2FSI (1148th-1587th aa) (from UniProt A0A1B2VWD2 1148-1587) (domain or fragment) |
| 18.6 | chick Fmn2 FH2_ΔFSI (1148th-1563rd aa) (from UniProt A0A1B2VWD2 1148-1563) (domain or fragment) |
